Assay [1] deals with T1, NaPi2b expressed on HCC-78 cells (Homo sapiens, UniProt O95436).
T1 construct: endogenous in cells; host or cells: HCC-78
T1 sequence (O95436 1-690): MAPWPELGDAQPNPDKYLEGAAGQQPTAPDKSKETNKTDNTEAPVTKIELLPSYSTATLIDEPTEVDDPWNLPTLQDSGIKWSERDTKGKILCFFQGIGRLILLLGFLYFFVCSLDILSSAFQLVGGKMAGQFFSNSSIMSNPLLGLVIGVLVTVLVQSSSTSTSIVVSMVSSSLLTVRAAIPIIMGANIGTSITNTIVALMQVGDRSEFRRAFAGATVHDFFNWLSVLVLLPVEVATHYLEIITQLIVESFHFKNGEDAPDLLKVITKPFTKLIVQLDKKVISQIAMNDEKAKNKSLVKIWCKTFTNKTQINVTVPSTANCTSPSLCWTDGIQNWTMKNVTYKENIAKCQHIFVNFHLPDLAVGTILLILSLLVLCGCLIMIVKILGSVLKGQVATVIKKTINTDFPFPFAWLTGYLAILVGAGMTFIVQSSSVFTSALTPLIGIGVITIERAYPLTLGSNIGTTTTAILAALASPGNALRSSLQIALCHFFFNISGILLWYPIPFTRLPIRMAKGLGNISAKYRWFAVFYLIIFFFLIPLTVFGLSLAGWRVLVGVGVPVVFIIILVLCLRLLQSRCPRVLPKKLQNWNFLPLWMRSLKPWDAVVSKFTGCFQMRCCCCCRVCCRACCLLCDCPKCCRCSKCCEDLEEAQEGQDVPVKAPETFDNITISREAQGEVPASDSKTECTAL
Put plainly: Cellular binding of antibody and ADCs to HCC-78 cells by flow cytometry (Example 14). How it is done:
Briefly, HEK293-6e cells were transfected for ˜24 hours to transiently express human NaPi2b, cynomolgus or mouse NaPi2b, at 1 μg of DNA per 1 million cells. Following transfection, 50,000 cells per well were seeded in V-bottom 96-well plates and incubated with 200 nM of primary antibody for 18-24 hours at 4° C. to prevent internalization. Post-incubation, cells were washed and stained with anti-Human IgG Fc AF647 conjugate (Jackson Immuno Research Labs, West Grove, PA, Cat. No. 109-605-098, Lot. No. 124868) at 4° C. for 1 hour. Following staining and washing, fluorescence was detected by flow cytometry on BD LSRFortessa™ Cell Analyzer (BD Biosciences, Franklin Lake, NJ) with 10,000 minimum events collected per well. The AF647/APC-A GeoMean (fluorescence signal geometric mean, proportional to anti-Human AF647 binding) was calculated for the live singlet cell population for each primary antibody using FlowJo™ v8 software (BD Biosciences, Franklin Lake, NJ). The Bmax and Kd of each primary antibody were calculated using GraphPad Prism Version 9 (GraphPad Software, San Diego, CA)
The ability of ADCs to bind to cells expressing NaPi2b was assessed. ADCs of a representative humanized variant antibody, v29456 (H1L2), were prepared by conjugation to DL2 and DL1 as described in Example 11. Binding to endogenous high NaPi2b-expressing cell lines IGROV-1 and HCC-78 was assessed by flow cytometry according to methods described in Example 5.
On the technique in general: In flow cytometry, cells or beads pass a laser one at a time.

For a further assay, the system named is HCC-78 cells. Description: Internalization by flow cytometry in HCC-78 cells. The format is cell-based, human. The settings on record: antibody 10 nM. How it is done: Briefly, antibodies were fluorescently labeled by coupling to a Fab fragment AF488 conjugate targeting anti-Human IgG Fe (Jackson Immuno Research Labs, West Grove, PA; Cat. No. 109-547-008) at a 1:1 molar ratio in PBS pH 7.4 (Thermo Fisher Scientific, Waltham, MA; Cat. No. 10010-023), for 24 hours at 4° C. Cells were seeded at 50,000 cells/well in RPMI 1640, ATCC modification (Thermo Fisher Scientific, Waltham, MA) supplemented with 10% fetal bovine serum (Thermo Fisher Scientific, Waltham, MA) in 48-well plates and incubated overnight under standard culturing conditions (37° C./5% CO2) to allow attachment. […] Following incubation, cells were dissociated, washed, and surface AF488 fluorescence was quenched using an anti-AF488 antibody (Life Technologies, Carlsbad, CA; Cat. No. A-11094) at 100 nM for 30 minutes at 4° C. […] (internalized fluorescence) was detected by flow cytometry on a BD LSRFortessa™ Cell Analyzer (BD Biosciences, Franklin Lake, NJ) with 1,000 minimum events collected per well. The AF488/FITC-A GeoMean (fluorescence signal geometric mean, proportional to anti-Human Fab AF488 labelling) was calculated for the live single cell population using FlowJo™ Version 10.8.1 (BD Biosciences, Franklin Lake, NJ) and plotted using GraphPad Prism Version 9 (GraphPad Software, San Diego, CA).

B1: v29456: humanized anti-NaPi2b IgG1/kappa antibody H1L2; VH SEQ ID NO:24, VL SEQ ID NO:29 (antibody, V domains shown)
VH: QVQLVQSGAEVKKPGASVKVSCKASGFTFTSYNVHWVRQAPGQGLEWMGAISPGNGDLSYAQKFQGRVTMTRDTSTSTVYMELSSLRSEDTAVYYCARGRTGMGAVDYWGQGTLVTVSS
VL: DVQMTQSPSSLSASVGDRVTITCRASQDVYSYLNWYQQKPGKAVKLLIYYTSRLQSGVPSRFSGSGSGTDYTLTISSLQPEDFATYYCQQYNIFPWTFGQGTKLEIK
modifications: v29452, v29456, v29460 VH (H1); v29453, v29454, v29455, v29456 VL (L2)
As for B1, in assay [1], the Bmax is 21,785. Further, the “Curve Hill Slope (h)” value in assay [1] is on record as 1.2. In addition, in assay [1] (apparent Kd), the Kd turned out to be 2.27 nM. Moreover, the “Internalized Fluorescence Fold-Over Palivizumab” value with HCC-78 cells (HCC-78, 5 hrs) came out at 25.3 fold; in the assay with HCC-78 cells (HCC-78, 24 hrs) it was 59.9 fold.
